The values that follow come from patent US20100124555A1, “Compositions and Methods for Treating Pancreatic Tumors” (UNIVERSITE DE LA MEDITERRANEE, priority 2007, published 2010).

Data set [1] in a line: Tissue cross-reaction study (staining of healthy tissues). Particulars: non-specific crossreactivity. How it is done:
The staining specificity of the IgM 16D10 and chimeric IgG rec16D10 antibodies was assessed by examining their respective staining of various healthy tissues. […] Staining with the chimeric antibody reel 6D10, in contrast, was negative on each of these healthy tissues.

Data set [2] has as its system E-cadherin, β-catenin in SOJ-6 cells. Kind of data set: Immunoblotting and immunofluorescence of E-cadherin/β-catenin complex, SOJ-6. The class given is cell-based, human. How it is done: (§1) SOJ-6 cells were grown in 6-well culture plates in RPMI 1640 medium with 10% FCS. At subconfluency, the medium was removed and replaced for 24 hours by fresh RPMI medium with 10% inactivated FCS. SOJ-6 cells were then incubated with mAb16D10 or Cisplatin for 24 hours. At the end of incubation, cells were washed three times with ice-cold PBS (without […] and Mg^++) harvested and pelleted by centrifugation. Pellets were washed twice and lysed at 4° C. in 0.5 ml of lysis buffer (10 mM Tris-HCl pH 7.4, 150 mM NaCl, 1% Triton X-100, 1 mM benzamidine and phosphatase inhibitors). After lysis, homogenates were clarified by centrifugation at 10,000 g for 10 min at 4° C. An aliquot was saved for protein determination using the bicinchoninic acid assay (Pierce, Rockford, Ill.). Proteins (50 μg/lane) in reducing SDS buffer were separated onto 10, 12, or 15% polyacrylamide with 0.1% SDS (according to the molecular weight range of proteins to be separated). After electrophoretic migration, proteins were silver stained. Alternatively, proteins were transferred onto nitrocellulose membranes using a Mini Transblot electrophoretic cell (BioRad, Hercule, Oreg.), and transferred proteins were immunodetected by using appropriate primary and secondary antibodies. After washes, membranes were developed with a chemoluminescent substrate according to the manufacturer's instructions (Roche Diagnostics, Switzerland). In each experiment, a control was included by omitting primary antibodies or by using a non-immune serum.
These molecules might confer to these lipid raft domains the role of signalling. Immunoblottings were performed to examine the expression of E-cadherin and of β-catenin by pancreatic tumoral cells.
Several studies have shown that, in the absence of Wnt signalling, the phosphorylation of residues of β-catenin addressed this protein to degradation by the ubiquitin-dependent proteasome pathway (Aberle et al., 1997 EMBO J. 16(13): 3797-804 and Orford et al., 1997 Biol. Chem. 272(40): 24735-8). […] Furthermore, β-catenin may be regulated by GSK-3β, which itself is activated in cells once treated with mAb16D10 (FIG. 11). […] Lastly, we wanted to determine whether the association of E-cadherin, β-catenin, and 16D10 antigen in the rafts microdomains is required for mAb16D10 to induce apoptosis (FIG. 13).

Data set [3] relates to SOJ-6 cells. Description: Apoptosis by caspase activity (CaspACE FITC-VAD-fmk in situ marker). Format: cell-based, human. How it is done:
Cells grown in 8-well plates (Polystyrene vessel, BD Falcon) were treated with mAb16D10 or mouse IgM in RPMI with inactivated FCS for 24 hours prior to the addition of CaspACE FITC-VAD-fmk in situ marker (Promega) at a final concentration of 10 μM in the culture medium according to manufacturer's instructions. Then cells were washed in PBS, fixed for 15 minutes in 2% paraformaldehyde, and washed once again. Upon caspase action on FITC-VAD-fmk, apoptotic cells become fluorescent and the number of fluorescent cells was determined in triplicate on collections of 10 fields randomly examined under the fluorescent microscope.

A further data set concerns PANC-1 cells. Kind of data set: MTT cell growth and proliferation assay, PANC-1. Format: cell-based, human. The following applies: PANC-1, increasing concentrations of antibody, 24 h. How it is done: Cell proliferation was determined using MTT assay as previously described (Mosmann et al., 1983 J Immunol Methods, 65(1-2):55-63). Briefly, cells were seeded at subconfluence in appropriate complete media containing 10% FCS in 96-well culture plates. Media were replaced for 24 h by fresh media with 10% inactivated FCS, including increasing concentrations of antibodies directed against FAPP (pAbL64, mAbJ28 and mAb16D10). Cells were washed with PBS and incubated with 100 μl of MTT (0.5 mg/ml) in complete media for 3 h, washed with PBS and finally incubated with DMSO for 30 min at 37° C. Cell growth was determined by measuring absorbance at 550 nm using a MR 5000 microplate spectrophotometer. All independent determinations were done in triplicate and compared to control.

Data set [4] has as its system SOJ-6 cells. Kind of data set: Effect of antibodies on SOJ-6 cell proliferation (Example 11). Format: cell-based, human. How it is done: The effects of the IgM antibody 16D10 and the chimeric antibody rec16D10 on the proliferation of SOJ-6 cells were examined. Cells were incubated in culture with no antibodies, with various amounts of 16D10 or rec16D10 antibodies, or with an irrelevant IgG antibody. Antibody 16D10 reduced cell proliferation by approximately 50% at either 25 or 50 μg/ml, while rec16D10 reduced proliferation by more than 20% and more than 35% at 25 and 50 μg/ml, respectively (FIG. 18).

Data set [5] has as its system cell surface antigens of fixed SOJ-6 cells. Description: FACS cell surface binding stability on fixed SOJ-6 cells. The arrangement: species or system human. Particulars: preliminary FACS experiments. The text has this:
Taking in account that most of the antibodies that have been studied so far at Innate Pharma, have kon rate association constants ranging from 5×10^5 to 5×10^6 M^−1s^−1, one can estimate that the recombinant 16D10 antibody bivalent affinity is in the nanomolar order (e.g., 10 to 1 nanoM) which is compatible with the industrial development of a therapeutic antibody.

Data set [6] concerns E-cadherin in PANC-1 cells. Description: Immunofluorescence of E-cadherin, PANC-1. Format: cell-based, human. Particulars: PANC-1 treated or not with mAb16D10.
In data set [7] the test system is Bcl-2, Bax, caspases 8 and 9, PARP in SOJ-6 cells. Kind of data set: SDS-PAGE and western blot of apoptosis proteins. Format: cell-based, human. Particulars: SOJ-6 cells, 24 h. How it is done:
as §1
A general note: In western blotting, separated proteins are transferred to a membrane and probed.

B1: 16D10: IgM monoclonal antibody recognizing FAPP/BSDL; producing cells deposited with the CNCM under the number I-3188 (antibody, listed as Mus musculus, V domains shown)
VH: QVQLQQSDAELVKPGASVKISCKASGYTFTDHAIHWVKQKPEQGLEWIGYISPGNDVIKFNEKFKGKATLTADKSSSTAYMQLNSLTSEDSAVYFCKRSEGGVFDYWGQGTTLTVS
VL: NIMMTQSPSSLAVSAGEKVTMSCKSSQSVLYSSNQKNFLAWYQQKPGQSPKLLIYWASTRESGVPDRFTGSGSGTDFTLTISSVQAEDLAVYYCHQYLSSYTFGGGTKLEIK
With B1, the “staining of healthy tissues (tonsils, salivary gland, peripheral nerve, eyes, bone marrow, ovary, oviduct, parathyroid, prostate, spleen, kidney, adrenals, testes, thymus, ureters, uterus, bladder)” value in data set [1] is reported as “positive staining”. For the same molecule, the “phosphorylation of β-catenin” value in data set [2] (SOJ-6) is reported as “phosphorylated”. Further, in data set [2] (SOJ-6, 25 μg/ml, 24 h), the “expression of β-catenin” value is “did not induce a significant change in the expression of β-catenin”. Further, the E-cadherin protein expression entry in data set [2] (SOJ-6, 25 μg/ml, 24 h, versus irrelevant IgM) is “high E-cadherin protein expression”. In addition, the “localization of β-catenin” value in data set [2] (SOJ-6, fluorescence microscopy, plasma membrane in untreated cells) is on record as “found in the cytosolic compartment”. Also, in the data set on SOJ-6 cells [3] (24 h, compared to RPMI and mouse IgM), the “apoptotic cellular death of SOJ-6 cells (number of apoptotic cells/cm2)” value is recorded as “leads to the apoptosis of SOJ-6 cells”. Moreover, the “apoptosis by caspase activity (number of apoptotic cells compared to control)” value with SOJ-6 cells [3] (SOJ-6, 24 hours, 16D10 25 μg/ml, recombinant chimeric 16D10 5 μg/ml) is given as “clearly enhanced”. Moreover, the “caspases through which apoptosis is stimulated” value in the data set with SOJ-6 cells [3] (cells pre-treated with or without caspase inhibitors) was “stimulates apoptosis through the caspase-3, caspase-8, and caspase-9”. For the same molecule, the “% growth of cells” value with PANC-1 cells was “unable to cause a decrease in growth or number of PANC-1 cells”. Further, the “reduction of SOJ-6 cell proliferation” value with SOJ-6 cells [4] (25 μg/ml) is reported as “approximately 50%”. The “reduction of SOJ-6 cell proliferation” value with SOJ-6 cells [4] (50 μg/ml) is “approximately 50%”. Moreover, the “stability of staining on fixed SOJ-6 cells” value in data set [5] was “seemed stable”. For the same molecule, in data set [6], the “E-cadherin at the plasma membrane” value is “did not express E-cadherin at their plasma membrane”. Moreover, in data set [7], the Bax protein level result is “increase of Bax protein”; the “anti-apoptotic protein Bcl-2 level” value is reported as “decrease of the anti-apoptotic protein Bcl-2”; the “mediators of induced apoptosis (caspases, PARP cleavage)” value was “mediated via caspases 8 and 9, and poly-ADP ribose polymerase (PARP) cleavage”.
